According to patent publication US20240327530A1 (ICHNOS SCIENCES, published 2024):
Blank lines part the entries; values can stand above or below the binder they belong to.

Legend:
[1] = molecular target: T1, Mouse IL-1RAP, membrane-bound on NIH-3T3 cells (mouse, UniProt Q61730 21-570); test: flow cytometry on NIH-3T3 cells, PE-Cyanine7 secondary antibody, relative mean fluorescence intensity (isotype subtracted); lower of two curves
T1 construct: Endogenous protein on cells
T1 sequence (looked up): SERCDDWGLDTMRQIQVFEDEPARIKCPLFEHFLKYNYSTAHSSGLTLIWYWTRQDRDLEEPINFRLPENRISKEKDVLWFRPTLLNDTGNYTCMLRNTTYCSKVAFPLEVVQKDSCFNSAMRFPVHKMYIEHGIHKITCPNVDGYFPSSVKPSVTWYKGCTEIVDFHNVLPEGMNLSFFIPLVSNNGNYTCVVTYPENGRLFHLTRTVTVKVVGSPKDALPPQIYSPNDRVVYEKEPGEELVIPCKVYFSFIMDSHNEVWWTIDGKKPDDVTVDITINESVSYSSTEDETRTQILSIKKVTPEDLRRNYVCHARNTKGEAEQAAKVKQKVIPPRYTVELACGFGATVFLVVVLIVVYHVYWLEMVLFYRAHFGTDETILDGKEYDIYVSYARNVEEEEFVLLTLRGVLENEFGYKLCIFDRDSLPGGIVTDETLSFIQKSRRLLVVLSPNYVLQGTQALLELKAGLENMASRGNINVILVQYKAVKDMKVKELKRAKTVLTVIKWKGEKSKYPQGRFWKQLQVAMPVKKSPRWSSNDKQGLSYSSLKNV
Procedure: In brief, cells were harvested, counted, and plated at 50′000 cells/well in a 96-well round-bottom plate. The plate was centrifuged at 350 g for 3 minutes and the cells were resuspended in […] of FACS® buffer (PBS (1×)+2.5% FCS+2 mM EDTA+0.05% NaN₃) containing various concentrations (ranging from 20 to 0.0001 μg/ml) of either anti-mouse IL-1RAP_candidate_1 or Isotype control_2 antibodies. Stained cells were incubated for 30 minutes at 4° C., washed twice with FACS® buffer at 350 g for 3 min and resuspended in 100 μl of a monoclonal anti-mouse IgG PE-Cyanine7 secondary antibody (Biolegend, 407114) diluted 1/200 in FACS® buffer. Cells were then washed twice, and resuspended in 200 μl of FACS® buffer containing SYTOX® Green dead cell stain (THERMO FISHER […]®, S34860) and samples were acquired on a CYTOFLEX® instruments (Beckman Coulter). The cells were gated based on size on FSC vs SSC and analysed for PE-Cyanine7-geometric mean (geomean) fluorescence intensity using FLOWJO® software. Finally, relative geomean fluorescence intensity was calculated by subtracting fluorescence of anti-mouse IL-1RAP_candidate_1 per fluorescence of Isotype control_2. As depicted in FIG. 11, anti-mouse IL-1RAP_candidate_1 antibody recognizes membrane-bound IL-1RAP expressed on NIH-3T3 cell line. […] Each data point is a measurement for a given cell line. […]

[2] = molecular target: T2, Recombinant human IL-1RAP-ECD(S21-E359)-avi-his protein (human, UniProt Q9NPH3 21-359); test: SPR, IgG1 LALA captured by anti-human Fc, human IL-1RAP-avi-his as analyte, 1:1 fit
T2 construct: Biotinylated where loaded on streptavidin; also called human IL-1RAP-ECD-Avi-His; recombinant human IL-1RAP-avi-his protein
T2 sequence: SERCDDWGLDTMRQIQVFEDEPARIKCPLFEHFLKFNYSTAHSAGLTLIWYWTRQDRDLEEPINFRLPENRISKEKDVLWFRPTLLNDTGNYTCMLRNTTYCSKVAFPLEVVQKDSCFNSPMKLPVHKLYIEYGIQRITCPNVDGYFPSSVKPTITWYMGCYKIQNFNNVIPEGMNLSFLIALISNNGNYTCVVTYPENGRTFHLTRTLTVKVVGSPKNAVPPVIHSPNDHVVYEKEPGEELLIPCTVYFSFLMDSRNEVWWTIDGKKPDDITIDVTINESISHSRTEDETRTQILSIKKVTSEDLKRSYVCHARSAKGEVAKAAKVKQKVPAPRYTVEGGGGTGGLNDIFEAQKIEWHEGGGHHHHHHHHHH
Procedure: Surface plasmon resonance (SPR) was used to measure the binding affinities of the human IgG1 LALA molecules for human and cynomolgus monkey IL-1RAP. Affinities were measured on a BIACORE™ T200 instrument (BIACORE™, GE […]®) at 25° C. and analyzed with the BIACORE™ T200 Evaluation Software (v3.1). Measurements were performed on Series S CM5 sensor chips (BIACORE™ T200, BIACORE™, GE […]®, catalog no. BR100530) coupled with anti-human IgG Fc (BIACORE™, GE […]®, catalog no. BR100839) using a commercial amine coupling kit (BIACORE™, GE […]®, catalog no. BR100050). SPR measurements were performed with recombinant human IL-1RAP-avi-his protein produced in house (SEQ ID NO. 1) or recombinant cynomolgus monkey IL-1RAP-avi-his protein produced in house (SEQ ID NO. 2). The affinities to human and cynomolgus monkey IL-1RAP were assessed by immobilizing anti-IL-1RAP IgG1 LALA molecules and using IL-1RAP proteins as analyte. Around 150 RU of human IgG1 LALA were captured on fc2 of a Series S CM5 sensor chip coupled with anti-human IgG Fc. Recombinant human IL-1RAP-avi-his protein or recombinant cynomolgus monkey IL-1RAP-avi-his protein was injected in multi cycle kinetic at different concentrations ranging from 0.14 to 100 nM, in HBS-EP+ buffer (BIACORE™, GE […]®, catalog no. BR100669) at a flow rate of 30 μl/min for 3 min on fc1 and fc2 (fc1 being used as reference). Dissociation was monitored for 12 min. After each cycle, the surface was regenerated with 60 μl of regeneration solution provided with anti-human IgG Fc capture kit (BIACORE™, GE […]®, catalog no. BR100839). Experimental data were processed using the 1:1 Langmuir kinetic fitting model. Measurements included zero-concentration samples for referencing. Chi², U- and residual values were used to evaluate the quality of a fit between the experimental data and individual binding models.

- EC50 (read off the curve) [1]: ~0.3 µg/mL
B1: Anti-IL-1RAP-C3-A3 mmIgG2a LALA (antibody, V domains shown)
VH: EVQLLESGGGLVQPGGSLRLSCAASGFIFSHYGMSWVRQAPGKGLEWVSAISYDGEGTLYADSVKGRFTISRDNSKNTLYLQMNSLRAEDTAVYYCARFRYYTAFDYWGQGTLVTVSS
VL: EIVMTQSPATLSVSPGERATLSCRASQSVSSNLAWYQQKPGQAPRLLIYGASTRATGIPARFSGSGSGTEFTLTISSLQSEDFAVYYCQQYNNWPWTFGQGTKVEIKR
notes: also called anti-IL-1RAP-C3-A3 mouse IgG2a LALA

- Kd [2]: 251 pM
- koff [2]: 0.000172 s⁻¹
- kon [2]: 693000 M⁻¹ s⁻¹
B2: Anti-IL-1RAP-C8-RecC-ES-IgG1LALA (antibody, V domains shown)
VH: QVQLVQSGAEVKKPGSSVKVSCKASGSPAEPYAIQWVRQAPGQGLEWMGYIIPSLGGYDYAQKFQGRVTITADESTSTAYMELSSLRSEDTAVYYCARGQTLYESGRQFDIWGQGTLVTVSS
VL: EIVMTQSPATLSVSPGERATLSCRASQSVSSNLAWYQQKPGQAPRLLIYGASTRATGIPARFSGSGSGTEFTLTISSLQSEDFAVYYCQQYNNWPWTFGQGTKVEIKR
notes: also called ISB 880-C8-recC-ES
